Test results from patent publication US20030078374A1, “Complementary peptide ligands generated from the human genome” (priority 1999, published 2003).

Tests used:
IL-1 [1] = target: T1, IL-1 (Homo sapiens, UniProt P01584); assay: direct binding to IL-1 by biosensing techniques
IL-1β = IL-1β (Homo sapiens, UniProt P01584); assay: two independent in vitro bioassays of IL-1β biological activity; assay type: cell-based; conditions: effect dependent on the peptide sequence
Text: The programme identified the antisense region LITVLNI in the interleukin 1 type 1 receptor (IL-1R).
The effect is dependent on the peptide sequence.

IL-1 [2] = target: T1, IL-1; assay: Serum Amyloid IL-1 assay; assay type: cell-based

T1 sequence (P01584 117-269): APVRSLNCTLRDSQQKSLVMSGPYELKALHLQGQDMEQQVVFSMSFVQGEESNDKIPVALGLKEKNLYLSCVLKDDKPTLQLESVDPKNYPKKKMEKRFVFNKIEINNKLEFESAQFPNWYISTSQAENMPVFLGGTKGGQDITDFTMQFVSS
Chain of IL-1β (P01584 117-269): as above

LITVLNI [antisense region in the interleukin 1 type 1 receptor (IL-1R) identified by the programme]
direct binding to IL-1 (IL-1 [1]): shown to bind directly to IL-1
inhibition of the biological activity of IL-1β (IL-1β): shown to inhibit the biological activity of IL-1β
inhibition of IL-1 activity (same effect) in Serum Amyloid IL-1 assay (IL-1 [2]): same effect is also seen
